The values below come from patent US20260201347A1, “ARTIFICIAL BIFUNCTIONAL ENZYME COMPRISING A MYELOPEROXIDASE ACTIVITY AND A GLUCOSE OXIDASE ACTIVITY AND APPLICATIONS THEREOF” (UNIVERSITÉ DE BORDEAUX, priority 2022, published 2026).

Format in all cases: biochemical, Rhodopirellula baltica / Penicillium amagasakiens
Common to all, as to settings: fixed NaCl 20 mM, pH7.5, pH 7.5

Substrate in data set [1]: OC[C@H]1OC(O)[C@H](O)[C@@H](O)[C@@H]1O
Nature of the data set: Coupled active sites, HOCl production from glucose, APF assay (Table 9), linker LEGGEAEA
On the procedure: (§1) Each experiment was performed in triplicate.
(§2) The activity of the two active sites was then assessed in conjunction to each other (FIG. 1).
(§3) Briefly, the aim was to measure the production of HOCl from glucose and NaCl as respective substrates of the enzymes, using the APF probe. Two types of kinetics were performed: • i) kinetics at various concentrations of glucose and a fixed concentration of NaCl, and • ii) kinetics at various concentration of NaCl and a fixed concentration of glucose.

Substrate in data set [2]: OC[C@H]1OC(O)[C@H](O)[C@@H](O)[C@@H]1O
Nature of the data set: Coupled active sites, HOCl production from glucose, APF assay (Table 9), linker GGGGGGGG
The protocol:
as §1, §2, §3

Substrate in data set [3]: OC[C@H]1OC(O)[C@H](O)[C@@H](O)[C@@H]1O
Nature of the data set: Coupled active sites, HOCl production from glucose, APF assay (Table 9), linker LEKRPEAEA
On the procedure: as §1, §2, §3

B1: RbMPO-LEGGEAEA-GOx chimera (Rhodopirellula baltica myeloperoxidase, SEQ ID NO: 10; linker SEQ ID NO: 4; Penicillium amagasakiens glucose oxidase, SEQ ID NO: … (protein)
chain: MLFWSKRTRKHPGRKRRRLRSEQLESRQLLAADFGGYRHNIYDAEDVNDDGRVSAIDALLVINAMTSETSRDENVFTDVNGDGRRSALDALRVINRIERGDVFPIDTSGDEDLNTLLPEMPSEVRSIDGSGNNPNDHLWGSVGQRLIRMAPAAYGDGISTLAGANRPSAREVSNVLSAMNTSQVLNDRGLSAFVYVWGQFIDHDLGLTESDEHGEAIDISVPEGDLWFDPMGSGEAVIPMTRTPIADGTGTSVGNPAQQFNQITAFIDGSMVYGSDAATAERLRTFAGGRLAISDNGLLPMDESGMVIAGDVRASENVGLTAIQTLFVREHNRLADEIFAADPEATDEEIYQRARLVVASLIQSITYNEFLPALLGQRAMDSYRGYDASVNPGIANEFSTAAFRLGHSTLRDEVGFMSNDGRESKDEMELKDAFFHASMLEETGIDSLLKFDASVQAQEIDLAVVDSLRNFLFGPPGAGGLDLVAMNIQRGRDHGLSDYNTTRQAYGLDRVETFDQITGDVELQQKLASLYGTVDNIDLWVGLMAEDHQHDASVGELTGLIIADQFQRTRDGDRFFYKNVLTDSEVESIERSTLADLIERNTSVDGLQENVFFMQVELRGRVILASSIPPNTMPSEVREEEIRGVSGMAIELIDASGKLVDSTVSDQHGNYRFRALSETGDYQVRLSESGEAMDVLVAHGAERIRGLDFIVLALEGGEAEAYLPAQQIDVQSSLLSDPSKVAGKTYDYIIAGGGLTGLTVAAKLTENPKIKVLVIEKGFYESNDGAIIEDPNAYGQIFGTTVDQNYLTVPLINNRTNNIKAGKGLGGSTLINGDSWTRPDKVQIDSWEKVFGMEGWNWDNMFEYMKKAEAARTPTAAQLAAGHSFNATCHGTNGTVQSGARDNGQPWSPIMKALMNTVSALGVPVQQDFLCGHPRGVSMIMNNLDENQVRVDAARAWLLPNYQRSNLEILTGQMVGKVLFKQTASGPQAVGVNFGTNKAVNFDVFAKHEVLLAAGSAISPLILEYSGIGLKSVLDQANVTQLLDLPVGINMQDQTTTTVSSRASSAGAGQGQAVFFANFTETFGDYAPQARDLLNTKLDQWAEETVARGGFHNVTALKVQYENYRNWLLDEDVAFAELFMDTEGKINFDLWDLIPFTRGSVHILSSDPYLWQFANDPKFFLNEFDLLGQAAASKLARDLTSQGAMKEYFAGETLPGYNLVQNATLSQWSDYVLQNFRPNWHAVSSCSMMSRELGGVVDATAKVYGTQGLRVIDGSIPPTQVSSHVMTIFYGMALKVADAILDDYAKSA
notes: 6His (in the pET21a vector behind the XhoI site); made in house; host or cells: E. coli BL21Star (DE3)
With B1, the Michaelis constant (Km) was determined as 629 ± 295 µM in data set [1] (other: dimer/monomer), 65600 ± 14200 µM in data set [1] (other: excluded), 8820 ± 4870 µM in data set [1] (other: monomer 1) and 1380 ± 671 µM in data set [1] (other: monomer 2). Also, the kcat in data set [1] (other: dimer/monomer) stood at 0.000315 s⁻¹; in data set [1] (other: excluded) it was 0.00056 s⁻¹; in data set [1] (other: monomer 1), 0.00123 s⁻¹; in data set [1] (other: monomer 2), 0.00377 s⁻¹. Further, the kcat/Km in data set [1] (other: dimer/monomer) worked out at 0.5 ± 0.259 M⁻¹ s⁻¹; in data set [1] (other: excluded), 0.00853 ± 0.00215 M⁻¹ s⁻¹; in data set [1] (other: monomer 1), 0.139 ± 0.095 M⁻¹ s⁻¹; in data set [1] (other: monomer 2) it was 2.73 ± 1.5 M⁻¹ s⁻¹.

B2: RbMPO-GGGGGGGG-GOx chimera (Rhodopirellula baltica myeloperoxidase, SEQ ID NO: 10; linker SEQ ID NO: 9; Penicillium amagasakiens glucose oxidase, SEQ ID NO: … (protein)
chain: MLFWSKRTRKHPGRKRRRLRSEQLESRQLLAADFGGYRHNIYDAEDVNDDGRVSAIDALLVINAMTSETSRDENVFTDVNGDGRRSALDALRVINRIERGDVFPIDTSGDEDLNTLLPEMPSEVRSIDGSGNNPNDHLWGSVGQRLIRMAPAAYGDGISTLAGANRPSAREVSNVLSAMNTSQVLNDRGLSAFVYVWGQFIDHDLGLTESDEHGEAIDISVPEGDLWFDPMGSGEAVIPMTRTPIADGTGTSVGNPAQQFNQITAFIDGSMVYGSDAATAERLRTFAGGRLAISDNGLLPMDESGMVIAGDVRASENVGLTAIQTLFVREHNRLADEIFAADPEATDEEIYQRARLVVASLIQSITYNEFLPALLGQRAMDSYRGYDASVNPGIANEFSTAAFRLGHSTLRDEVGFMSNDGRESKDEMELKDAFFHASMLEETGIDSLLKFDASVQAQEIDLAVVDSLRNFLFGPPGAGGLDLVAMNIQRGRDHGLSDYNTTRQAYGLDRVETFDQITGDVELQQKLASLYGTVDNIDLWVGLMAEDHQHDASVGELTGLIIADQFQRTRDGDRFFYKNVLTDSEVESIERSTLADLIERNTSVDGLQENVFFMQVELRGRVILASSIPPNTMPSEVREEEIRGVSGMAIELIDASGKLVDSTVSDQHGNYRFRALSETGDYQVRLSESGEAMDVLVAHGAERIRGLDFIVLAGGGGGGGGYLPAQQIDVQSSLLSDPSKVAGKTYDYIIAGGGLTGLTVAAKLTENPKIKVLVIEKGFYESNDGAIIEDPNAYGQIFGTTVDQNYLTVPLINNRTNNIKAGKGLGGSTLINGDSWTRPDKVQIDSWEKVFGMEGWNWDNMFEYMKKAEAARTPTAAQLAAGHSFNATCHGTNGTVQSGARDNGQPWSPIMKALMNTVSALGVPVQQDFLCGHPRGVSMIMNNLDENQVRVDAARAWLLPNYQRSNLEILTGQMVGKVLFKQTASGPQAVGVNFGTNKAVNFDVFAKHEVLLAAGSAISPLILEYSGIGLKSVLDQANVTQLLDLPVGINMQDQTTTTVSSRASSAGAGQGQAVFFANFTETFGDYAPQARDLLNTKLDQWAEETVARGGFHNVTALKVQYENYRNWLLDEDVAFAELFMDTEGKINFDLWDLIPFTRGSVHILSSDPYLWQFANDPKFFLNEFDLLGQAAASKLARDLTSQGAMKEYFAGETLPGYNLVQNATLSQWSDYVLQNFRPNWHAVSSCSMMSRELGGVVDATAKVYGTQGLRVIDGSIPPTQVSSHVMTIFYGMALKVADAILDDYAKSA
notes: as for B1
Turning to B2, the Km in data set [2] (other: dimer/monomer) is 2060 ± 1290 µM; in data set [2] (other: excluded), 2760 ± 1060 µM; in data set [2] (other: monomer) it was 6196 ± 951 µM; in data set [2] (other: trimer) it was 3610 ± 2110 µM. In addition, the kcat in data set [2] (other: dimer/monomer) was determined as 0.00155 s⁻¹; in data set [2] (other: excluded), 0.000102 s⁻¹; in data set [2] (other: monomer) it was 0.000512 s⁻¹; in data set [2] (other: trimer), 0.000589 s⁻¹. The kcat/Km in data set [2] (other: dimer/monomer) worked out at 0.754 ± 0.545 M⁻¹ s⁻¹; in data set [2] (other: excluded) it was 0.037 ± 0.017 M⁻¹ s⁻¹; in data set [2] (other: monomer) it was 0.083 ± 0.015 M⁻¹ s⁻¹; in data set [2] (other: trimer), 0.163 ± 0.129 M⁻¹ s⁻¹.

B3: RbMPO-LEKRPEAEA-GOx chimera (Rhodopirellula baltica myeloperoxidase, SEQ ID NO: 10; linker SEQ ID NO: 8; Penicillium amagasakiens glucose oxidase, SEQ ID NO: … (protein)
chain: MLFWSKRTRKHPGRKRRRLRSEQLESRQLLAADFGGYRHNIYDAEDVNDDGRVSAIDALLVINAMTSETSRDENVFTDVNGDGRRSALDALRVINRIERGDVFPIDTSGDEDLNTLLPEMPSEVRSIDGSGNNPNDHLWGSVGQRLIRMAPAAYGDGISTLAGANRPSAREVSNVLSAMNTSQVLNDRGLSAFVYVWGQFIDHDLGLTESDEHGEAIDISVPEGDLWFDPMGSGEAVIPMTRTPIADGTGTSVGNPAQQFNQITAFIDGSMVYGSDAATAERLRTFAGGRLAISDNGLLPMDESGMVIAGDVRASENVGLTAIQTLFVREHNRLADEIFAADPEATDEEIYQRARLVVASLIQSITYNEFLPALLGQRAMDSYRGYDASVNPGIANEFSTAAFRLGHSTLRDEVGFMSNDGRESKDEMELKDAFFHASMLEETGIDSLLKFDASVQAQEIDLAVVDSLRNFLFGPPGAGGLDLVAMNIQRGRDHGLSDYNTTRQAYGLDRVETFDQITGDVELQQKLASLYGTVDNIDLWVGLMAEDHQHDASVGELTGLIIADQFQRTRDGDRFFYKNVLTDSEVESIERSTLADLIERNTSVDGLQENVFFMQVELRGRVILASSIPPNTMPSEVREEEIRGVSGMAIELIDASGKLVDSTVSDQHGNYRFRALSETGDYQVRLSESGEAMDVLVAHGAERIRGLDFIVLALEKRPEAEAYLPAQQIDVQSSLLSDPSKVAGKTYDYIIAGGGLTGLTVAAKLTENPKIKVLVIEKGFYESNDGAIIEDPNAYGQIFGTTVDQNYLTVPLINNRTNNIKAGKGLGGSTLINGDSWTRPDKVQIDSWEKVFGMEGWNWDNMFEYMKKAEAARTPTAAQLAAGHSFNATCHGTNGTVQSGARDNGQPWSPIMKALMNTVSALGVPVQQDFLCGHPRGVSMIMNNLDENQVRVDAARAWLLPNYQRSNLEILTGQMVGKVLFKQTASGPQAVGVNFGTNKAVNFDVFAKHEVLLAAGSAISPLILEYSGIGLKSVLDQANVTQLLDLPVGINMQDQTTTTVSSRASSAGAGQGQAVFFANFTETFGDYAPQARDLLNTKLDQWAEETVARGGFHNVTALKVQYENYRNWLLDEDVAFAELFMDTEGKINFDLWDLIPFTRGSVHILSSDPYLWQFANDPKFFLNEFDLLGQAAASKLARDLTSQGAMKEYFAGETLPGYNLVQNATLSQWSDYVLQNFRPNWHAVSSCSMMSRELGGVVDATAKVYGTQGLRVIDGSIPPTQVSSHVMTIFYGMALKVADAILDDYAKSA
notes: as for B1
As for B3, the Michaelis constant (Km) turned out to be 2160 ± 1480 µM in data set [3] (other: dimer/monomer), 22600 ± 6500 µM in data set [3] (other: excluded) and 1056 ± 496 µM in data set [3] (other: trimer). The catalytic constant (kcat) in data set [3] (other: dimer/monomer) amounted to 0.000642 s⁻¹; in data set [3] (other: excluded), 0.000365 s⁻¹; in data set [3] (other: trimer), 0.000156 s⁻¹. Moreover, the kcat/Km came out at 0.298 ± 0.235 M⁻¹ s⁻¹ in data set [3] (other: dimer/monomer), 0.016 ± 0.005 M⁻¹ s⁻¹ in data set [3] (other: excluded) and 0.148 ± 0.081 M⁻¹ s⁻¹ in data set [3] (other: trimer).

As usually defined, the Km is the substrate concentration at which the rate is half of its maximum. As usually defined, the kcat is the maximal rate divided by the concentration of active sites. As a reminder, the kcat/Km is the second-order rate constant that governs catalysis at low substrate concentration.
